We go through one protein from article PMC11764342, “A Novel Nitrite Reductase from Acinetobacter haemolyticus for Efficient Degradation of Nitrite” (Biomolecules, 2025).

Substrate in the series: O=NO
In words: purified protein. Type of series: biochemical, Acinetobacter haemolyticus. Particulars: dithionite-reduced methyl viologen as electron donor, 30 °C, optimum pH (printed as 7.5 in abstract, 7 in results; assay PBS pH 7.0), NaNO2 0.51-2.17 mmol/L.

B1: AhNiR (Acinetobacter haemolyticus CIP 64.3 = MTCC 9819) (protein)
chain: MYLYTDFDQQLINQRVAQFRDQTERYLAGKLTEDEYRPLRLQNGLYVQRYAPMLRIAVPYGLMNTKQLRKIAEIATEYDRGYAHVSTRQNIQLNWPALEDVPDILEELATVQMHAVQTSGNCIRNTTTDQFAGVVAGEIADPRPTCELIRQWSTFHPEFAFLPRKFKIAVSALAETDRAATAFHDIGVYIVRNEAGEIGYKIMAGGGLGRTPIIGSVIRDFLPREDLIAYLEATLRVYNLHGRRDNKYKARIKILVKALTPEVFAQKVEAEFEHTREALKIQPEILKKLDEEFTPFDYQDLEDQDFTALFAEYPKFKQWFNVNTNAHKVKGYRIVTISLKRAGIAPGDMTSEEMNLIADLADKYTFGEFRTTHEQNISLVDVPQKDLFELWQTLEQNDMARAHIGFITDIICCPGGDFCSLANAKSIPISEAITRRFEDLDTIYNLGELDLNISGCMNACGHHHVGNIGILGVDKKGAEFYQITLGGNADHDASIGDILGPSFAADAVPDVIEEILNTYLDLRTEGERFIDTYRRVGIQPFKERAYA
notes: whole gene in pET28a (BamHI/XhoI), N-terminal His tag, E. coli BL21(DE3), Ni-NTA; predicted 61929 Da
In the case of B1, the Michaelis-Menten constant (Km) (as a rule, the concentration of substrate that gives half-maximal velocity) is 1530 µM.
